# Assay results from the nanobody polyreactivity screen of Harvey et al. (2022).
# Test: yeast display, Sf9 membrane polyspecificity reagent, FACS + sequencing; frameworks hold sequencing errors
# Procedure, shortened: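 Synthetic nanobody libraries on Saccharomyces cerevisiae BJ5465 were galactose-induced for 36–48 hours, stained 1 hour at 4 °C with 10% biotinylated, detergent-solubilized Sf9 membrane reagent and enriched on streptavidin microbeads. FACS then separated cells into low and high (top ~1%) gates by anti-HA (expression) and streptavidin (reagent binding) fluorescence. Genes were colony-PCR amplified, MiSeq 2 × 250 sequenced and CDR-length filtered. A clone's polyreactivity label is that of its gate of origin.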
sequence,measurement,value
QVQLVESGGVLVQAGGSLRLSCAASGFIFSSNAMGWCREAPGKERELVAAITGGGGRTRYADSVKGRFTISRDNAKNTVYLQMNSLKPEDTAVYYCAAEVYSIWWYDYWGQGTQVTVSS,polyreactivity (PSR sort gate),high polyreactivity
QVQLVESGGVLVQAGGSLRLSCAASGFIFVRYAMGWYRQAPGKERELVAAITSSDSNTNYADSVKGRFTISRDNAKNTVYLQMNSLNPEDTAVYYCNARIYTRRYVPHYGFNYWGQGTQVTVSS,polyreactivity (PSR sort gate),low polyreactivity
QVQLVESGGVLVQAGGSLRLSCAASGFTFVWYAMGWYRQAPGKERELVAAISRRGTRTYYADSVKGRFTISRDNAKNTVYLQMNSLKPEDTALYYCAASNGYQAVTYDYWGQGTQVTVSS,polyreactivity (PSR sort gate),high polyreactivity
QVQLVESGGVLVQAGGSLRLSCAASGGIFNYYAMGWYRQAPGKERELVAAISASGGSTYYADSVKGRFTISRDNAKNTVYLQMNILKPEDTAVYYCAAGLPYGYGYDYWGQGTQVTVSS,polyreactivity (PSR sort gate),low polyreactivity
QVQLVESGGVLVQAGGSLRLSCAASGITFPDYDMGWYIHATGKERELVAAITYRSGSTYYADSVKGRFTISRDNAKNTVFLQMNCLKREDTAVYYCAADWRTKGYDSLGQGTQVTVSS,polyreactivity (PSR sort gate),high polyreactivity
QVQLVESGGVLVQAGGSLRLSCAASGRIFGDNAMGWYRHAPGKERELDADIDSGGRTNYADSVKVRFTISLDNAKNTVYLQMNSLKPEDTAVYYCGRDDIAYLVEYDYWGQGTQVTVSS,polyreactivity (PSR sort gate),low polyreactivity
QVQLVESGGVLVQAGGSLRLSCAASGRIFGENAMGWYRQAPGKEREFVAVISISDASTYYADSVKGRFTISRDNAKNTVYLQMNSLKPEDTAVYYCADDLTDFLYVASDYWGQGTQVTVSS,polyreactivity (PSR sort gate),low polyreactivity
QVQLVESGGVLVQAGGSLRLSCAASGRIFLRNVMGWYRQAPGKERELVAAISSSGGRTYYADSVKGRFTISRDNAKNSVYLQMNSLKPEDTAVYYCANLSSSRLPSEMEYWGQGTQVTVSS,polyreactivity (PSR sort gate),high polyreactivity
QVQLVESGGVLVQAGGSLRLSCAASGRIFQTYAMGWYRQAPGKERELVAAISSRGRTYYADSVKGRFTISRDNAKITVYLQMNSLKREDTAVYYCAARDWSHRPRGYDYWGQGTQVTVSS,polyreactivity (PSR sort gate),high polyreactivity
QVQLVESGGVLVQAGGSLRLSCAASGRIFSAYAMGWYRPAPGKERDLVAAITSVGSTKYADYVKGRFTISRDNAKNTVYLQMNSLKPQDTAVYYCAAEYTRSFYIYYRFGYWGQGTQVTVSS,polyreactivity (PSR sort gate),high polyreactivity
QVQLVESGGVLVQAGGSLRLSCAASGRSFGVYAMGWYRQAPGKEMELVAAISEGGGSTNYADSVKGRFTISRDNAKNTVYLQMNSLKPEDTAVYYCAATYRTGVRRYYSWGQGTQVTVSS,polyreactivity (PSR sort gate),low polyreactivity
QVQLVESGGVLVQAGGSLRLSCAASGRTFGVYAMGWYRQAPGKERELVATITSVDRTNYADSVKGRFTISRDNAKNTVYLQMNSLKTEDTAVYYCAAVGRWPLYYYWGQGTQVTVSS,polyreactivity (PSR sort gate),high polyreactivity
QVQLVESGGVLVQAGGSLRLSCAASGRTFRRNAMGWYRQAPGKERELVAGIRSSGGSTYYADSVKGRFTISRDNAKNTVYLQINSLKQEDTAVYYCNAVGRPRYGHGFDHWGQGTQVTVSS,polyreactivity (PSR sort gate),high polyreactivity
QVQLVESGGVLVQAGGSLRLSCAASGRTLRWYAKGWYRPAPGKERELVAAINWSGTSTYYADSVKGRFTISRDNAKNTVYLQMNSLKPEDTAVYYCAKRVTWNYDWGQGTQVTVSS,polyreactivity (PSR sort gate),high polyreactivity
QVQLVESGGVLVQAGGSLRLSCAASGSIFANNAMGWYRQAPGKERELVATIRSGGTTNYADSVKGRFTISRDNAKNTVYLQMNSLKPEDTAVYYCAVDYVVYADGPLDYWGQGTQVTVSS,polyreactivity (PSR sort gate),low polyreactivity
QVQLVESGGVLVQAGGSLRLSCAASGSIFDSNAMGWYRQAPGKERELVAAISWSGSRTYYADSVKGRFTISRDYAKNTVYLQILSLKPEDTAVYYCAALVRRYGKYDYWGQCTQVTVSS,polyreactivity (PSR sort gate),high polyreactivity
QVQLVESGGVLVQAGGSLRLSCAASGSIFDTYAMGWYRQAPGKERELVAAITWSGSSTYYADSVKGRFTISRDNAKNTVYLQMNSLKQEDTAVYYCAKDYYVEVTTEYDYWGQGTQVTVSS,polyreactivity (PSR sort gate),high polyreactivity
QVQLVESGGVLVQAGGSLRLSCAASGSIFERYDMGWYRQAPGKERELVAAITSAGITYYADSVKGRFTISRDNAKNNVYLQMNSLKPEDTAVYYCAAQGRRGAPYRHVNEGDYWGQGTQVTVSS,polyreactivity (PSR sort gate),low polyreactivity
QVQLVESGGVLVQAGGSLRLSCAASGSIFRGYAMGCYRQAPGKERELVAAINTSGGRTYYADSVKGRFTISRDNAKNTVYLQMIRLKPDDTAVYYCATEYYQAKREDYWGQGTQVTVSS,polyreactivity (PSR sort gate),high polyreactivity
QVQLVESGGVLVQAGGSLRLSCAASGSIFSGYSMGWYRQAPGKERELVAAITWNGGSTYYADSVKGRFTISRDNAKNTVYLQMNILKPEDTAVYYCAAERAARFNYWGQGTQVTVSS,polyreactivity (PSR sort gate),high polyreactivity
QVQLVESGGVLVQAGGSLRLSCAASGSISSVYAMGWYRQAPGKDRELVAGITSGGSTNYADSVKGRFTISRDNAKITVYLQMNSLKPEDTAVYYCAAVYKGAGTHFDVFVKEFDYWRQGTQVTVSS,polyreactivity (PSR sort gate),low polyreactivity
QVQLVESGGVLVQAGGSLRLSCAASGSTFEDYTMGWYRQAPRKVRELVAISTRGGTYYADSVKGRFTSSRDNPKNTVYLQRNSLKPEDTAVYYCNKRFGYYSWDQYSRDYWGQGTQVTVSS,polyreactivity (PSR sort gate),low polyreactivity
QVQLVESGGVLVQAGGSLRLSCAASGSTFGKNTMGWYRQAPGKERELVAAISRGVSTYYAYSVKGRFTISRDNATNTFYLQMNSLKPEDTALYYCAAQEAYRWYGFDFWGQGTQVTVLS,polyreactivity (PSR sort gate),high polyreactivity
QVQLVESGGVLVQAGGSLRLSCAASGSTFGRYTMGWYRQAPGKERELVAVITKSGGSTYYADSVKGRFTISRDNAKNTVYLQMNSLKPEDTAVYYCAAGVAWRFYSWGQGTQVTVSS,polyreactivity (PSR sort gate),high polyreactivity
QVQLVESGGVLVQAGGSLRLSCAASGSTFYPNAMGWYRQAPGQEREFVAAISDGGSTTYADSVKGRFTISRDNAKNTVYLQMNSLKPEDTAVYYCNARVGSYTPSWYYQEFDYWGQGTQVTVSS,polyreactivity (PSR sort gate),low polyreactivity
QVQLVESGGVLVQAGGSLRLSCAASGSTIPYNTMGWYRQAPRKERELVAAITRTSYADTVKGRFTISRDNAKNTVYLEMISLKREDTAVYYCAADKSFYYYLFGYDYWGQGTQVTVSS,polyreactivity (PSR sort gate),low polyreactivity
QVQLVESGGVLVQAGGSLRLSCAASRGIFSGYAMGWYRQAPGKERELVASITRRGSSTYYADSVKGPFTISRDSAKNTVYLQMNSLNPEDTAVYYCHAVLRYHVLYRGYDYWGQGTQLTVSS,polyreactivity (PSR sort gate),high polyreactivity
QVQLVESGGVLVQAGGSLRLSCAPSGRIFNYYAMGWYRQAPGKERELVAAISSSGGRTYYADSVKGRFTISRDNAKNTVYLQMNSLKPEDTAVYYCAAYDSLRYSTYDYWGQGTQVTVSS,polyreactivity (PSR sort gate),high polyreactivity
QVQLVESGGVLVQAGGSLRLSCASSGSTFTKYAMGWYRQAPGKERELVAAISRSGGGTYYADSVKGRFTISRDNAKNTVYLQMNSLKPEDTAVYYCNAALFRGAQFDYWGQGTQVTVSS,polyreactivity (PSR sort gate),high polyreactivity
QVQLVESGGVLVQAGGSLRLSCDASGRIFKYNAMGWYRQAPGKERELVDVITSGVSTYYADSVKGRFTISRDNAKNTVYLQMNSLKPEDTAVYYCAKKYYKVHKFDYWCQGTQVTVSS,polyreactivity (PSR sort gate),low polyreactivity
QVQLVESGGVLVQAGGSLRLSCPASGRTFTYNAMGWYRQAPGKERELVAVITNSGGSTYYADSVKGRFTISRDNPKNTVYLQMNSLKPEDTAVYYCAADYFYRYWYRFYYWGQGTQVTVSS,polyreactivity (PSR sort gate),high polyreactivity
QVQLVESGGVLVQAGGSLRLTCAASASILYVYAMGWYRHAPGKERELVATITGRVVSTNYADSVKGRFTSSRDNAKNTVYLQMNSLKTEDTALYYCAASTRRRRGEYDYCGQGTQVTVSS,polyreactivity (PSR sort gate),high polyreactivity
QVQLVESGGVLVQAGGSLRLTCAASGSNFVTNAMGWYRQAPGKERELVAAISVSGGSTYYADSVKGRFTISRDNAKNTVYLQMNSLKPEDTAVYYCNTVRSPAGHDYWGQGTQVTVSS,polyreactivity (PSR sort gate),low polyreactivity
QVQLVESGGVLVQAGGSPRLSCAASGRTYAYYPMGWYRQAPGKERELVARITRGGSTYYADSVKGRFTISRDNAKNSVYLQMYSLIPDDTAVYYCNRYQWQHYTSVYLRTGSDYWGQGTQVTVSS,polyreactivity (PSR sort gate),high polyreactivity
QVQLVESGGVLVQAVASLRVSCAASGRILDYNTMGWYRPAPGKERELVAAISFSGGRTYYADSVKGRFTISRDNAKNTFYLQMNSLKPEDTAVYYCAATVGAASRYYYWGQGSQVTVSS,polyreactivity (PSR sort gate),high polyreactivity
QVQLVESGGVLVQSGGSLRLSCAASGITLSRYAMGWYRQAPGKERELVAAISRRGGSTYYADSVKGRFTISRDNAKNSVYLQLNSLKPEDTAVDYCAATRYASLSDSGFNYWGQGTQVTVSS,polyreactivity (PSR sort gate),high polyreactivity
QVQLVESGGVLVQSGGSLRLSCAASGLIFTWNAMGWYRQAPGKERELVAPISTGGSTSYADSVKGRFTISRDNAKNTVYLQMNSLKPEDTAVYYCARDSSIWSHGSWYDYWGQGTHVTVSS,polyreactivity (PSR sort gate),low polyreactivity
QVQLVESGKGLVQAGGILRLSCAASGLIFGFNAMGWYRQAPGKERELVAAIYGSGGTTYYADSVKGRFTISRDNAKNTVYLQMNSLKPEDTAVYYCAGEYIYNVQFSWPKTPAFDYWGQGTLVTVSS,polyreactivity (PSR sort gate),low polyreactivity
QVQLVESGKGLVQAGGSLRLSCAASGITITIYAMGWYRNAPGKERELVAAITWRGGRTYYADSVKGRFTISRDNAKNTVYLQMNSLKPEDTAVYYCNALFGSYPYYWFEYWGHGTQVTVSS,polyreactivity (PSR sort gate),high polyreactivity
QVQLVESGRALVQAGGSLRLSCAASGNTFEDYAMGWYRQAPGKERELVAAINSGGSTNYADSVKGRFTISRDNAKNTVYLQLNSLKPEDTAVYYCAAEPGEGFDYWGQGTQVTVSS,polyreactivity (PSR sort gate),low polyreactivity
QVQLVESGRCLVQAGCSLRLSCAASGYTFSRSAMGWYRQAPGKERELVAAISWSGGSTYYADSVKGRFTISRDNAKNTVYLQMNSLKPEDTAVYYCIKVRYVSQTAFYYWGQGTQVTVSS,polyreactivity (PSR sort gate),high polyreactivity
QVQLVESGRCLVQDGRSLRLSCAASGRTFYGNAMGWYRQAPAKERELVAAISRSGGRTYYADSVKGRFTISRDNAKNTVYLEMISLKPEDTAVYYFASEIRFWYGYYYWGQGTQVTVSS,polyreactivity (PSR sort gate),high polyreactivity
QVQLVESGRGIVQAGRSLRLSCPASGRIYPNAIGWYRQAPGKEREFVAAISRSDGSTYYADSVNGRFTISRDNAKNTVYLQMNSLKPEDTAVYYCATDYRFTSRTANFDYWGQGTLVTVSS,polyreactivity (PSR sort gate),low polyreactivity
